Positions count from the first letter of the chain named.
Key:
Assay in all cases: cell_activity; CHO iGFFP reporter
LOX 3-4 m.201 = biological target: T1, LOX 3-4 m.201 (artificial (I-CreI derived))
T1 chain: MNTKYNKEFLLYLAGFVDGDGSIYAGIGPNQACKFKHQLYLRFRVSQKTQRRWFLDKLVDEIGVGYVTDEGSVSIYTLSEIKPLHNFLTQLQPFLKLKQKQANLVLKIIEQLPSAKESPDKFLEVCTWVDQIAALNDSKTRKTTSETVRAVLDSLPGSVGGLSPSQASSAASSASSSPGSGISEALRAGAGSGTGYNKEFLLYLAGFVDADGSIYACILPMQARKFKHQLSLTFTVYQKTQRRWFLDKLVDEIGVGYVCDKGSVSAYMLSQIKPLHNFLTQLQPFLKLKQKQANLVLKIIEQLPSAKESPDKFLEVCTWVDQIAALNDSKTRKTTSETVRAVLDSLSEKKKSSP
Description: (§1) A CHO cell reporter system (see WO/2012/167192, FIG. 3) was used to determine whether the engineered meganucleases generated in these studies could recognize and cleave the modified LOX 3-4 recognition sequences in Table 87. To perform the assay, a pair of CHO cell reporter lines were produced, which carried a non-functional Green Fluorescent Protein (GFP) gene expression cassette integrated into the genome of the cell. The GFP gene in each cell line was interrupted by a pair of recognition sequences such that intracellular cleavage of either recognition sequence by a meganuclease would stimulate a homologous recombination event resulting in a functional GFP gene. In both cell lines, one of the recognition sequences was derived from the LOX 3-4 recognition sequence (i.e., those sequences disclosed in Table 87), and the second recognition sequence was specifically recognized by a control meganuclease called “CHO 23/24.” CHO reporter cells comprising a recognition sequence derived from the LOX 3-4 recognition sequence and the CHO 23/24 recognition sequence are referred to herein as “test cells.”
(§2) Novel engineered meganucleases derived from the LOX 3-4x.109 meganuclease were prepared by making amino acid substitutions at one or more positions in the first subunit. These engineered meganucleases were then evaluated for cleavage of the LOX 3-4 recognition sequence modified to have a GTGG center sequence (SEQ ID NO: 496) in the CHO reporter assay according to Example 1. Novel meganucleases which were modified to comprise the residues recited in the tables below were capable of cleaving the LOX 3-4 recognition sequence having a GTGG four base pair center sequence.

LOX 3-4 m.203 = biological target: T2, LOX 3-4 m.203 (artificial (I-CreI derived))
T2 chain: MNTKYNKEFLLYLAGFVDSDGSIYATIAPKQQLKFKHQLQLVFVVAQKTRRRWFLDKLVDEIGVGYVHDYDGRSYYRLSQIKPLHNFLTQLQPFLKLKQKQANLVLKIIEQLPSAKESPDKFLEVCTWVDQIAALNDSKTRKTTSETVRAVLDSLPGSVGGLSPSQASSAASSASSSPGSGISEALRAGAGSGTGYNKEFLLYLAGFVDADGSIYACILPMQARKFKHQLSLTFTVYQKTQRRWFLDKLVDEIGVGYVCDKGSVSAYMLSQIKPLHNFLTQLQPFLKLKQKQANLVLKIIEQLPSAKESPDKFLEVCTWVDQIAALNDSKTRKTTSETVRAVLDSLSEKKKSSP
Description: as §1, §2

LOX 3-4 m.192 = biological target: T3, LOX 3-4 m.192 (artificial (I-CreI derived))
T3 chain: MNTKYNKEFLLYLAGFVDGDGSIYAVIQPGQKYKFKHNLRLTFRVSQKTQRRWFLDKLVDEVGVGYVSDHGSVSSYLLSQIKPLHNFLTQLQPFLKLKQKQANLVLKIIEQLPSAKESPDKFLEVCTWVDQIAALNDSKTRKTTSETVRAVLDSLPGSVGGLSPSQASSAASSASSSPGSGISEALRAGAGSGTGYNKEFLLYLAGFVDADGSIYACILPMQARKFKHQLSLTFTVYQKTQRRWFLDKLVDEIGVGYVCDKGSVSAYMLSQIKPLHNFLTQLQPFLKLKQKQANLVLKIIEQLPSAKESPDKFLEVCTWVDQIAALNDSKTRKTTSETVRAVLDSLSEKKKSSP
Description: as §1, §2

LOX 3-4m.856 = biological target: T4, LOX 3-4m.856 (artificial (I-CreI derived))
T4 chain: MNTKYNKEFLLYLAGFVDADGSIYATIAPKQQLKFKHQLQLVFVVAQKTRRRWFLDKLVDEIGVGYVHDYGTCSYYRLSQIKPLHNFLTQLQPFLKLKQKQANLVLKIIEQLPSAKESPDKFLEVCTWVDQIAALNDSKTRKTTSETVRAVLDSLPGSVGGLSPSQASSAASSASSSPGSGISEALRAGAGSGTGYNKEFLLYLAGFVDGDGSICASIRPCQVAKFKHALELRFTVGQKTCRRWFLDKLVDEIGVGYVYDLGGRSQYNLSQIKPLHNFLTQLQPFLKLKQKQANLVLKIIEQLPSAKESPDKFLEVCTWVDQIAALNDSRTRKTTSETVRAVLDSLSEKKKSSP
Description: as §1
(§3) Novel engineered meganucleases derived from the LOX 3-4x.109 meganuclease were prepared by making amino acid substitutions at one or more positions in the first subunit and one or more positions in the second subunit. In addition, two engineered meganucleases were generated that inserted an additional R residue following position 264, which corresponds to position 73 of wild-type I-CreI. These engineered meganucleases were then evaluated for cleavage of the LOX 3-4 recognition sequence modified to have an ACAG center sequence (SEQ ID NO: 34) in the CHO reporter assay according to Example 1.

LOX 3-4m.776 = biological target: T5, LOX 3-4m.776 (artificial (I-CreI derived))
T5 chain: T4 chain with F54L, G71R, T72Q, Q80E
Description: as §1, §3

LOX 3-4m.788 = biological target: T6, LOX 3-4m.788 (artificial (I-CreI derived))
T6 chain: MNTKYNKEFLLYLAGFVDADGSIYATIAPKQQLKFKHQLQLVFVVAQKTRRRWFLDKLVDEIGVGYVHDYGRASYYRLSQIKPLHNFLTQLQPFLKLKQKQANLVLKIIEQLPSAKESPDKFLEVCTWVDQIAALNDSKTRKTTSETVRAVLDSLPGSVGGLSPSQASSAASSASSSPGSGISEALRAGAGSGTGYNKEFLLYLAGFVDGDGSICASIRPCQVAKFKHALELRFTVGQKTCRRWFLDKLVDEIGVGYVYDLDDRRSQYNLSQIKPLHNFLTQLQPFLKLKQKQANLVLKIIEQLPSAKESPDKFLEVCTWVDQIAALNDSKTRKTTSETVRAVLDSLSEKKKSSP
Description: as §1, §3

LOX 3-4m.775 = biological target: T7, LOX 3-4m.775 (artificial (I-CreI derived))
T7 chain: T4 chain with F54I, T72K, C73A, Q80E, R330K
Description: as §1, §3

LOX 3-4 m.181 = biological target: T8, LOX 3-4 m.181 (artificial (I-CreI derived))
T8 chain: T4 chain with A19S, K48S, G71R, T72N, K139T, C241Q, G263S, R264V, N268T, R330K
Description: as §1
as §2, with “GTGC” for “GTGG”, “463)” for “496)”

LOX 3-4 m.186 = biological target: T9, LOX 3-4 m.186 (artificial (I-CreI derived))
T9 chain: T4 chain with A19S, R50S, G71S, T72K, C73T, C241Q, G263S, R264V, N268T, R330K
Description: as §1
as §2, with “GTGC” for “GTGG”, “463)” for “496)”

LOX 3-4 m.180 = biological target: T10, LOX 3-4 m.180 (artificial (I-CreI derived))
T10 chain: T4 chain with K48R, R50I, T72A, C73V, C241Q, G263S, R264V, N268T, R330K
Description: as §1
as §2, with “GTGC” for “GTGG”, “463)” for “496)”

B1: LOX 3-4 GTGG (dsDNA)
DNA 1: GTATAGCATGTGGTATACGAAG
DNA 2: CTTCGTATACCACATGCTATAC
activity (LOX 3-4 m.201): 11 % GFP | activity (LOX 3-4 m.203): 12.1 % GFP | activity (LOX 3-4 m.192): 11.9 % GFP

B2: LOX 3-4 ACAG (dsDNA)
DNA 1: GTATAGCATACAGTATACGAAG
DNA 2: CTTCGTATACTGTATGCTATAC
activity (LOX 3-4m.856): 10.8 % GFP | activity (LOX 3-4m.776): 10.4 % GFP | activity (LOX 3-4m.788): 10.5 % GFP | activity (LOX 3-4m.775): 12.2 % GFP

B3: LOX 3-4 GTGC (dsDNA)
DNA 1: GTATAGCATGTGCTATACGAAG
DNA 2: CTTCGTATAGCACATGCTATAC
activity (LOX 3-4 m.181): 13.8 % GFP | activity (LOX 3-4 m.186): 13.4 % GFP | activity (LOX 3-4 m.180): 13.7 % GFP
